Data taken from patent publication US20200392228A1 (PANDION OPERATIONS, published 2020).
Read-outs that look alike come from different tables or passages of the source.

T1: mouse MAdCAM expressed on cells (mouse, UniProt Q61826 22-405)
T1 construct: whole, on cells
T1 sequence (looked up): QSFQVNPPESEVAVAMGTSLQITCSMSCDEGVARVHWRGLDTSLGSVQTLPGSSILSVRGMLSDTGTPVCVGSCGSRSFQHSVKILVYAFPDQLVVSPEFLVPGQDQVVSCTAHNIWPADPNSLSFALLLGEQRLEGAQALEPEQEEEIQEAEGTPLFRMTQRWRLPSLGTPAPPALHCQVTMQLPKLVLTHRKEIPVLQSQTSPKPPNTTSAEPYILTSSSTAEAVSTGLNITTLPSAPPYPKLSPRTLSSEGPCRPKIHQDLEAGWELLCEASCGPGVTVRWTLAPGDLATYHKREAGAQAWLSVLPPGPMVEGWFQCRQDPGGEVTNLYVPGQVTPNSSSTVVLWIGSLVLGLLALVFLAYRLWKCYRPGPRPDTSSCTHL

T2: human MAdCAM expressed on cells (human, UniProt Q13477 19-382)
T2 construct: whole, on cells; also called MADCAM1
T2 sequence (looked up): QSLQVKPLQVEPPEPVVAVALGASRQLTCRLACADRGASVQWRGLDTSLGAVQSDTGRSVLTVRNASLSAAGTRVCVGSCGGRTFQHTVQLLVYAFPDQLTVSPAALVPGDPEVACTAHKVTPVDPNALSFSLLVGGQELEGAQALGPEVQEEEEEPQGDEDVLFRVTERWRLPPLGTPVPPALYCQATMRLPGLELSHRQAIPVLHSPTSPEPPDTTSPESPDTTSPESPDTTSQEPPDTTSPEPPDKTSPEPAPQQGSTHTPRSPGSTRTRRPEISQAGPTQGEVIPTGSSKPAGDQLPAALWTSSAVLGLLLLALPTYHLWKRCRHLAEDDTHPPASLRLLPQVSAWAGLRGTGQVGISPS

T3: mouse MAdCAM protein (mouse, UniProt Q61826 22-365, limits assumed)
T3 construct: also called recombinant mouse MAdCAM-1; mMAdCAM-1
T3 sequence (looked up): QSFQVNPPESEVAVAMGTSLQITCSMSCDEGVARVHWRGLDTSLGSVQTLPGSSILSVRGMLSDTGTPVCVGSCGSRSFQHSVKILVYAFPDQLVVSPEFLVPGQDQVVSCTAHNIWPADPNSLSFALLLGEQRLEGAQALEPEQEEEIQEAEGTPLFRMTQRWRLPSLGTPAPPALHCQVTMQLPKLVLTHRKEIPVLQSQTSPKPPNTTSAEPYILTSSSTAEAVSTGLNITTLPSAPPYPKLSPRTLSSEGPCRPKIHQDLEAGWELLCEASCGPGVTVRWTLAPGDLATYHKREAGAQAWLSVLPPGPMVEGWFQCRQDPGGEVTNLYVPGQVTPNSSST

T4: human MAdCAM protein (human, UniProt Q13477 19-317)
T4 construct: used for Octet, SPR, ELISA and plate capture; construct not described; also called recombinant human MAdCAM; soluble monomeric human MAdCAM
T4 sequence (looked up): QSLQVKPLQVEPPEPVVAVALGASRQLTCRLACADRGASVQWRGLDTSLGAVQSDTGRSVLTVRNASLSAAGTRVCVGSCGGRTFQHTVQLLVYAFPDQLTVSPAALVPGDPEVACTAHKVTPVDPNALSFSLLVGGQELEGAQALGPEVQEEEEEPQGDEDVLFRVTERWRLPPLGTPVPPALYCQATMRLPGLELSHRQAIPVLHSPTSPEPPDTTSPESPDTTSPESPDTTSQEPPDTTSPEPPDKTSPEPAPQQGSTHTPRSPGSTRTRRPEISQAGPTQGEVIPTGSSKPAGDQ


Key:
[1] = biological target: T1, mouse MAdCAM expressed on cells; test: cell binding
[2] = biological target: T2, human MAdCAM expressed on cells; test: cell binding
mouse MAdCAM protein [3] = biological target: T3, mouse MAdCAM protein; test: Octet
human MAdCAM protein [4] = biological target: T4, human MAdCAM protein; test: Octet
[5] = biological target: T1, mouse MAdCAM expressed on cells; test: cell binding; remark: listed apart in the source
[6] = biological target: T2, human MAdCAM expressed on cells; test: cell binding; remark: listed apart in the source
mouse MAdCAM protein [7] = biological target: T3, mouse MAdCAM protein; test: Octet; remark: listed apart in the source
human MAdCAM protein [8] = biological target: T4, human MAdCAM protein; test: Octet; remark: listed apart in the source

Binder	binding result [1]	binding result [2]	binding result (mouse MAdCAM protein [3])	binding result (human MAdCAM protein [4])	binding result [5]	binding result [6]	binding result (mouse MAdCAM protein [7])	binding result (human MAdCAM protein [8])
MAdCAM antibody Clone ID 2 of Table 6 (scFv) (scFv) scFv: QVQLVQSGAEVKKPGASVKVSCKASGYPFIGYYLHWVRQAPGQGLEWMGIINPSGGSTSYAQKFQGRVTMTRDTSTSTVYMELSSLRSEDTAVYYCAREGRLSYGMDAWGQGTLVTVSSGGGGSGGGGSGGGGSGGGGSDIQMTQSPSSLSASVGDRVTITCRASQSISSYLAWYQQKPGKAPKLLIYGASTLESGVPSRFSGSGSGTDFTLTISSLQPEDFATYYCQQTWGPPFTFGQGTKLEIK	binds	binds	binds	binds				
MAdCAM antibody Clone ID 59 of Table 6 (scFv) (scFv) scFv: EVQLLESGGGLVQPGGSLRLSCAASGFTFSDFWMHWVRQAPGKGLEWISYISGDSGYTNYADSVKGRFTISRDNSKNTLYLQMNSLRAEDTAVYYCARDRPYYYYMDVWGKGTTVTVSSGGGGSGGGGSGGGGSGGGGSDIQMTQSPSSLSASVGDRVTITCRASQSVSRSLAWYQQKPGKAPKLLIYAASSLQSGVPSRFSGSGSGTDFTLTISSLQPEDFATYYCQQYKSYPVTFGQGTKVEIK	binds	binds	binds	binds				
MAdCAM antibody Clone ID 4 of Table 6 (scFv) (scFv) scFv: QVQLVQSGAEVKKPGASVKVSCKASGGTFSSYAISWVRQAPGQGLEWMGSINPSGDTTSYAQKFQGRVTMTRDTSTSTVYMELSSLRSEDTAVYYCAKDKAQWLVGYFDYWGQGTLVTVSSGGGGSGGGGSGGGGSGGGGSDIQMTQSPSSLSASVGDRVTITCQASQDISNSLNWYQQKPGKAPKLLIYAASSLQSGVPSRFSGSGSGTDFTLTISSLQPEDFATYYCQQSYSSVITFGQGTKVEIK	binds	binds	binds	binds				
MAdCAM antibody Clone ID 63 of Table 6 (scFv) (scFv) scFv: EVQLLESGGGLVKPGGSLRLSCAASGFTFDDYAMHWVRQAPGKGLEWVASITSSSAFIDYAASVKGRFTISRDDSKNTLYLQMNSLKTEDTAVYYCARERVDWNSYFDLWGRGTLVTVSSGGGGSGGGGSGGGGSGGGGSEIVMTQSPATLSVSPGERATLSCRASQGISNSYLAWYQQKPGQAPRLLIYGASTRATGIPARFSGSGSGTEFTLTISSLQSEDFAVYYCQQYYTYPPTFGPGTKVDIK	binds	binds	binds	binds				
MAdCAM antibody Clone ID 5 of Table 6 (scFv) (scFv) scFv: EVQLLESGGGLVQPGGSLRLSCAASGFTFSSYWMHWVRQAPGKGLEWVSSISPGGSNIDYADSVKGRFTISRDNSKNTLYLQMNSLRAEDTAVYYCAREVQLSHYDYWGQGTLVTVSSGGGGSGGGGSGGGGSGGGGSDIQMTQSPSSLSASVGDRVTITCRASQGISNSLAWYQQKPGKAPKLLIYGASSLQSGVPSRFSGSGSGTDFTLTISSLQPEDFATYYCQQANSFPFTFGQGTKVEIK	binds	binds	binds	binds				
MAdCAM antibody Clone ID 23 of Table 7 (IgG) (antibody, V domains shown, IgG format) VH: EVQLLESGGGLVQPGGSLRLSCAASGFTFDDYAMHWVRQAPGKGLEWVSYIDTSSSHLYYADSVKGRFTISRDNSKNTLYLQMNSLRAEDTAVYYCARDEAAAGYYGMDVWGQGTTVTVSS VL: DIQMTQSPSSLSASVGDRVTITCQAGQDISNYLNWYQQKPGKAPKLLIYDASNLETGVPSRFSGSGSGTDFTLTISSLQPEDFATYYCQQTYSTPITFGQGTKLEIK					no binding	binds	no binding	binds
MAdCAM antibody Clone ID 6 of Table 6 (scFv) (scFv, also called Antibody Clone 6) scFv: EVQLLESGGGLVQPGGSLRLSCAASGFTFNNYAFHWVRQAPGKGLEWVSRINSYGTSTTYADSVKGRFTISRDNSKNTLYLQMNSLRAEDTAVYYCAREGPVAGYWYFDLWGQGTLVTVSSGGGGSGGGGSGGGGSGGGGSDIQMTQSPSSLSASVGDRVTITCRASQIIGTNLAWYQQKPGKAPKLLIYGASSLQSGVPSRFSGSGSGTDFTLTISSLQPEDFATYYCQQSYRLPFTFGQGTKVEIK	no binding	binds	no binding	binds				
MAdCAM antibody Clone ID 46 of Table 7 (IgG) (antibody, V domains shown, IgG format) VH: EVQLLESGGGLVQPGGSLRLSCAASGFSFSSYTMNWVRQAPGKGLEWVSFITSSSRTIYYADSVKGRFTISRDNSKNTLYLQMNSLRAEDTAVYYCARDRRGDYGDSWYFDLWGRGTLVTVSS VL: EIVMTQSPATLSVSPGERATLSCRASQSVRNYLAWYQQKPGQAPRLLIYGASTRATGIPARFSGSGSGTEFTLTISSLQSEDFAVYYCQQYGSSPLTFGGGTKVEIK					no binding	binds	no binding	binds
MAdCAM antibody Clone ID 7 of Table 6 (scFv) (scFv) scFv: QVQLVQSGAEVKKPGASVKVSCKASGYTFTGYHIHWVRQAPGQGLEWMGIINPSGGSTIYAQKFQGRVTMTRDTSTSTVYMELSSLRSEDTAVYYCAKDWSSWYLGPFDYWGQGTLVTVSSGGGGSGGGGSGGGGSGGGGSDIQMTQSPSSLSASVGDRVTITCRASQNISSSLNWYQQKPGKAPKLLIYAASSLQSGVPSRFSGSGSGTDFTLTISSLQPEDFATYYCQQSYTTPYTFGQGTKVEIK	binds	binds	binds	binds				
MAdCAM antibody Clone ID 75 of Table 7 (IgG) (antibody, V domains shown, IgG format) VH: EVQLLESGGGLVQPGGSLRLSCAASGFTFSDFWMHWVRQAPGKGLEWISYISGDSGYTNYADSVKGRFTISRDNSKNTLYLQMNSLRAEDTAVYYCARDRPYYYYMDVWGKGTTVTVSS VL: DIQMTQSPSSLSASVGDRVTITCRASQSVSRSLAWYQQKPGKAPKLLIYAASSLQSGVPSRFSGSGSGTDFTLTISSLQPEDFATYYCQQYKSYPVTFGQGTKVEIK					binds	binds	binds	binds
MAdCAM antibody Clone ID 79 of Table 7 (IgG) (antibody, V domains shown, IgG format) VH: EVQLLESGGGLVKPGGSLRLSCAASGFTFDDYAMHWVRQAPGKGLEWVASITSSSAFIDYAASVKGRFTISRDDSKNTLYLQMNSLKTEDTAVYYCARERVDWNSYFDLWGRGTLVTVSS VL: EIVMTQSPATLSVSPGERATLSCRASQGISNSYLAWYQQKPGQAPRLLIYGASTRATGIPARFSGSGSGTEFTLTISSLQSEDFAVYYCQQYYTYPPTFGPGTKVDIK					binds	binds	binds	binds
MAdCAM antibody Clone ID 9 of Table 6 (scFv) (scFv) scFv: EVQLLESGGGLVQPGGSLRLSCAASGFTFSDYYMNWVRQAPGKGLEWVSVIGESGGSTYYADSVKGRFTISRDNSKNTLYLQMNSLRAEDTAVYYCAADPVSRWPKHGGGDYWGQGTLVTVSSGGGGSGGGGSGGGGSGGGGSDIQMTQSPSSLSASVGDRVTITCRASQGISSSLAWYQQKPGKAPKLLIYAASTLQSGVPSRFSGSGSGTDFTLTISSLQPEDFATYYCQQSYSTPWTFGQGTKVEIK	binds	binds	binds	binds				
